Results on 125 sequences are retold here after the supplement of paper PMC9112550, “Optimization of the antimicrobial peptide Bac7 by deep mutational scanning” (BMC Biology, 2022).

The test system of the data set is Escherichia coli TOP10. Description: shrunken log2 fold change of peptide-encoding DNA abundance (4.5 h post-induction vs induction); higher = less antimicrobial activity (less host growth inhibition). As to conditions: time post-induction: 4.5 h; library: site-saturation at positions 5, 18, 19, 20.
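Further: peptides expressed intracellularly from a pBAD plasmid library in pooled LB shake-flask culture, induced with 0.3% L-arabinose, DNA abundance read by NGS, three biological replicates, DESeq2 with apeglm shrinkage.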

Consider RRIRPRPPRLPRPRPRPNALPRP, for which the “shrunken log2 fold change” value is 0.0933.

As for RRIRVRPPRLPRPRPRPSEVPRP, the “shrunken log2 fold change” value is -0.138.

Turning to RRIRHRPPRLPRPRPRPTMVPRP, the “shrunken log2 fold change” value was -0.224.

With RRIRGRPPRLPRPRPRPWWEPRP, the “shrunken log2 fold change” value is 0.0256.

Turning to RRIRIRPPRLPRPRPRPICVPRP, the “shrunken log2 fold change” value was -0.181.

As for RRIRGRPPRLPRPRPRPDTYPRP, the “shrunken log2 fold change” value turned out to be 0.241.

On to RRIRYRPPRLPRPRPRPCQIPRP, for which the “shrunken log2 fold change” value is -0.00804.

Consider RRIRARPPRLPRPRPRPDQDPRP, for which the “shrunken log2 fold change” value amounted to 0.605.

With RRIRARPPRLPRPRPRPTQSPRP, the “shrunken log2 fold change” value was determined as 0.902.

Take RRIRGRPPRLPRPRPRPYPQPRP: the “shrunken log2 fold change” value stood at 0.12.

Consider RRIRQRPPRLPRPRPRPVRVPRP, for which the “shrunken log2 fold change” value is 0.686.

On to RRIRHRPPRLPRPRPRPYIDPRP, for which the “shrunken log2 fold change” value is -0.0149.

As for RRIRTRPPRLPRPRPRPSWDPRP, the “shrunken log2 fold change” value is -0.262.

With RRIRKRPPRLPRPRPRPHYFPRP, the “shrunken log2 fold change” value was -0.268.

Consider RRIRYRPPRLPRPRPRPVLSPRP, for which the “shrunken log2 fold change” value is -0.311.

In the case of RRIRYRPPRLPRPRPRPINYPRP, the “shrunken log2 fold change” value is -1.12.

Take RRIRTRPPRLPRPRPRPDRLPRP: the “shrunken log2 fold change” value was 0.0294.

Consider RRIRWRPPRLPRPRPRPWHLPRP, for which the “shrunken log2 fold change” value was -0.00636.

In the case of RRIRLRPPRLPRPRPRPNLYPRP, the “shrunken log2 fold change” value was -0.38.

Consider RRIRRRPPRLPRPRPRPWREPRP, for which the “shrunken log2 fold change” value is -0.0799.

In the case of RRIRERPPRLPRPRPRPSMCPRP, the “shrunken log2 fold change” value is -0.409.

As to RRIRYRPPRLPRPRPRPYKCPRP, the “shrunken log2 fold change” value is -0.175.

As for RRIRARPPRLPRPRPRPCLAPRP, the “shrunken log2 fold change” value is 0.328.

In the case of RRIRARPPRLPRPRPRPVIDPRP, the “shrunken log2 fold change” value was -0.066.

As to RRIRLRPPRLPRPRPRPKAYPRP, the “shrunken log2 fold change” value was -0.402.

As to RRIRSRPPRLPRPRPRPSTIPRP, the “shrunken log2 fold change” value was -0.482.

In the case of RRIRYRPPRLPRPRPRPPGMPRP, the “shrunken log2 fold change” value stood at 0.0171.

As to RRIRARPPRLPRPRPRPKGKPRP, the “shrunken log2 fold change” value was found to be 1.12.

As to RRIRVRPPRLPRPRPRPWGLPRP, the “shrunken log2 fold change” value is -0.159.

As for RRIRARPPRLPRPRPRPQIPPRP, the “shrunken log2 fold change” value was -0.346.

Regarding RRIRLRPPRLPRPRPRPCCQPRP, the “shrunken log2 fold change” value was -0.194.

With RRIRDRPPRLPRPRPRPKKNPRP, the “shrunken log2 fold change” value is 0.125.

As to RRIRIRPPRLPRPRPRPPRYPRP, the “shrunken log2 fold change” value is -0.217.

With RRIRLRPPRLPRPRPRPNQRPRP, the “shrunken log2 fold change” value stood at 0.00956.

With RRIRGRPPRLPRPRPRPWNEPRP, the “shrunken log2 fold change” value is -0.14.

For RRIRIRPPRLPRPRPRPLIPPRP, the “shrunken log2 fold change” value is -0.692.

As for RRIRARPPRLPRPRPRPLAYPRP, the “shrunken log2 fold change” value was 0.293.

Turning to RRIRWRPPRLPRPRPRPDMAPRP, the “shrunken log2 fold change” value was found to be 0.204.

Consider RRIRARPPRLPRPRPRPDTRPRP, for which the “shrunken log2 fold change” value was 0.0596.

As for RRIRQRPPRLPRPRPRPFQDPRP, the “shrunken log2 fold change” value was -0.195.

In the case of RRIRCRPPRLPRPRPRPRWRPRP, the “shrunken log2 fold change” value was 0.442.

Turning to RRIRFRPPRLPRPRPRPWSPPRP, the “shrunken log2 fold change” value was -0.491.

Take RRIRPRPPRLPRPRPRPWKDPRP: the “shrunken log2 fold change” value was -0.0368.

Take RRIRIRPPRLPRPRPRPFFPPRP: the “shrunken log2 fold change” value was -0.264.

With RRIRFRPPRLPRPRPRPVITPRP, the “shrunken log2 fold change” value was -0.666.

Turning to RRIRFRPPRLPRPRPRPRNGPRP, the “shrunken log2 fold change” value came out at 0.101.

Take RRIRTRPPRLPRPRPRPWHEPRP: the “shrunken log2 fold change” value came to 0.111.

Regarding RRIRRRPPRLPRPRPRPHENPRP, the “shrunken log2 fold change” value was -0.019.

As for RRIRDRPPRLPRPRPRPDRIPRP, the “shrunken log2 fold change” value is -0.0411.

With RRIRYRPPRLPRPRPRPVRPPRP, the “shrunken log2 fold change” value was 0.924.

Take RRIRARPPRLPRPRPRPTETPRP: the “shrunken log2 fold change” value is 1.11.

Turning to RRIRFRPPRLPRPRPRPQASPRP, the “shrunken log2 fold change” value came out at 0.0447.

As to RRIRGRPPRLPRPRPRPLMRPRP, the “shrunken log2 fold change” value turned out to be 1.61.

As to RRIRSRPPRLPRPRPRPWSVPRP, the “shrunken log2 fold change” value is -0.305.

As to RRIRFRPPRLPRPRPRPARTPRP, the “shrunken log2 fold change” value is 0.332.

Consider RRIRLRPPRLPRPRPRPAWGPRP, for which the “shrunken log2 fold change” value came to 0.444.

For the sequence RRIRERPPRLPRPRPRPHSKPRP, the “shrunken log2 fold change” value was -0.313.

Take RRIRRRPPRLPRPRPRPNFQPRP: the “shrunken log2 fold change” value came to 0.253.

With RRIRVRPPRLPRPRPRPDHNPRP, the “shrunken log2 fold change” value was -0.488.

Turning to RRIRPRPPRLPRPRPRPDQKPRP, the “shrunken log2 fold change” value is -0.0552.

With RRIRWRPPRLPRPRPRPLHRPRP, the “shrunken log2 fold change” value worked out at 0.0218.

On to RRIRSRPPRLPRPRPRPFLPPRP, for which the “shrunken log2 fold change” value is -0.305.

Take RRIRDRPPRLPRPRPRPSRWPRP: the “shrunken log2 fold change” value amounted to 0.0623.

RRIRTRPPRLPRPRPRPTMPPRP: the “shrunken log2 fold change” value was -0.0706.

As for RRIRPRPPRLPRPRPRPPFSPRP, the “shrunken log2 fold change” value worked out at 0.0978.

With RRIRARPPRLPRPRPRPAHKPRP, the “shrunken log2 fold change” value turned out to be 0.664.

In the case of RRIRRRPPRLPRPRPRPEFGPRP, the “shrunken log2 fold change” value was 0.376.

With RRIRMRPPRLPRPRPRPMFDPRP, the “shrunken log2 fold change” value was -0.328.

Regarding RRIRGRPPRLPRPRPRPGVHPRP, the “shrunken log2 fold change” value amounted to 0.597.

On to RRIRDRPPRLPRPRPRPDNGPRP, for which the “shrunken log2 fold change” value is -0.223.

For the sequence RRIRDRPPRLPRPRPRPVNSPRP, the “shrunken log2 fold change” value stood at 0.0226.

As for RRIRVRPPRLPRPRPRPQPMPRP, the “shrunken log2 fold change” value is 2.31.

As to RRIRFRPPRLPRPRPRPTKDPRP, the “shrunken log2 fold change” value was -0.196.

On to RRIRERPPRLPRPRPRPQNRPRP, for which the “shrunken log2 fold change” value was -0.281.

RRIRCRPPRLPRPRPRPKQVPRP: the “shrunken log2 fold change” value is 0.44.

For the sequence RRIRYRPPRLPRPRPRPTEPPRP, the “shrunken log2 fold change” value is -0.131.

For RRIRGRPPRLPRPRPRPITYPRP, the “shrunken log2 fold change” value came out at 0.265.

Take RRIRHRPPRLPRPRPRPTELPRP: the “shrunken log2 fold change” value came to 0.0215.

For RRIRFRPPRLPRPRPRPFHNPRP, the “shrunken log2 fold change” value is -0.622.

RRIRCRPPRLPRPRPRPFLGPRP: the “shrunken log2 fold change” value is -0.305.

For RRIRLRPPRLPRPRPRPLCFPRP, the “shrunken log2 fold change” value was -0.233.

Turning to RRIRHRPPRLPRPRPRPMGNPRP, the “shrunken log2 fold change” value was -0.0499.

Consider RRIRFRPPRLPRPRPRPVKVPRP, for which the “shrunken log2 fold change” value was -0.297.

For the sequence RRIRDRPPRLPRPRPRPKHEPRP, the “shrunken log2 fold change” value was 0.134.

As for RRIRGRPPRLPRPRPRPTCSPRP, the “shrunken log2 fold change” value turned out to be 0.991.

Regarding RRIRDRPPRLPRPRPRPTSIPRP, the “shrunken log2 fold change” value is 0.099.

On to RRIRIRPPRLPRPRPRPYNRPRP, for which the “shrunken log2 fold change” value was -0.01.

Take RRIRERPPRLPRPRPRPYGGPRP: the “shrunken log2 fold change” value is -0.286.

RRIRERPPRLPRPRPRPGIWPRP: the “shrunken log2 fold change” value is 0.139.

As to RRIRLRPPRLPRPRPRPSSAPRP, the “shrunken log2 fold change” value was -0.0182.

With RRIRGRPPRLPRPRPRPKPFPRP, the “shrunken log2 fold change” value is 0.601.

Turning to RRIRHRPPRLPRPRPRPMIEPRP, the “shrunken log2 fold change” value stood at 0.0253.

RRIRWRPPRLPRPRPRPRGRPRP: the “shrunken log2 fold change” value was found to be 0.704.

As to RRIRRRPPRLPRPRPRPSKFPRP, the “shrunken log2 fold change” value was -0.0219.

For the sequence RRIRDRPPRLPRPRPRPPQVPRP, the “shrunken log2 fold change” value turned out to be 0.272.

For RRIRVRPPRLPRPRPRPSVYPRP, the “shrunken log2 fold change” value was -0.25.

In the case of RRIRVRPPRLPRPRPRPVEQPRP, the “shrunken log2 fold change” value is -0.0734.

Regarding RRIRKRPPRLPRPRPRPNLWPRP, the “shrunken log2 fold change” value was found to be 0.492.

RRIRPRPPRLPRPRPRPTDSPRP: the “shrunken log2 fold change” value is -0.245.

Turning to RRIRWRPPRLPRPRPRPHLKPRP, the “shrunken log2 fold change” value is -0.0706.

Turning to RRIRVRPPRLPRPRPRPTICPRP, the “shrunken log2 fold change” value was -0.604.

On to RRIRDRPPRLPRPRPRPSYIPRP, for which the “shrunken log2 fold change” value is -0.267.

As for RRIRYRPPRLPRPRPRPRKSPRP, the “shrunken log2 fold change” value was 0.117.

With RRIRNRPPRLPRPRPRPINHPRP, the “shrunken log2 fold change” value is -0.705.

In the case of RRIRRRPPRLPRPRPRPEFEPRP, the “shrunken log2 fold change” value came to 0.37.

As for RRIRSRPPRLPRPRPRPRIHPRP, the “shrunken log2 fold change” value is -0.323.

Consider RRIRDRPPRLPRPRPRPQMAPRP, for which the “shrunken log2 fold change” value was found to be 0.116.

RRIRQRPPRLPRPRPRPACEPRP: the “shrunken log2 fold change” value is -0.0795.

RRIRKRPPRLPRPRPRPTEIPRP: the “shrunken log2 fold change” value amounted to 0.162.

With RRIRTRPPRLPRPRPRPTVVPRP, the “shrunken log2 fold change” value stood at 0.0732.

For the sequence RRIRDRPPRLPRPRPRPAFEPRP, the “shrunken log2 fold change” value came to 0.906.

In the case of RRIRSRPPRLPRPRPRPASIPRP, the “shrunken log2 fold change” value was determined as 7.54e-05.

RRIRPRPPRLPRPRPRPLVIPRP: the “shrunken log2 fold change” value was -0.509.

For the sequence RRIRVRPPRLPRPRPRPNVVPRP, the “shrunken log2 fold change” value is -0.109.

On to RRIRWRPPRLPRPRPRPHEAPRP, for which the “shrunken log2 fold change” value was 0.273.

For RRIRWRPPRLPRPRPRPVSNPRP, the “shrunken log2 fold change” value came out at 0.0778.

With RRIRIRPPRLPRPRPRPPEPPRP, the “shrunken log2 fold change” value was found to be 0.105.

In the case of RRIRQRPPRLPRPRPRPKGWPRP, the “shrunken log2 fold change” value was found to be 0.502.

For RRIRPRPPRLPRPRPRPECIPRP, the “shrunken log2 fold change” value is -0.0733.

With RRIRHRPPRLPRPRPRPFPPPRP, the “shrunken log2 fold change” value is -0.228.

RRIRNRPPRLPRPRPRPCDSPRP: the “shrunken log2 fold change” value worked out at 0.11.

As to RRIRWRPPRLPRPRPRPNDMPRP, the “shrunken log2 fold change” value is 0.199.

For the sequence RRIRDRPPRLPRPRPRPEPRPRP, the “shrunken log2 fold change” value came out at 1.

As to RRIRPRPPRLPRPRPRPIMVPRP, the “shrunken log2 fold change” value is -0.158.

For the sequence RRIRWRPPRLPRPRPRPLQNPRP, the “shrunken log2 fold change” value was -0.11.
